# Experiment: soluble on expression in E. coli; label from the status in PepcDB or PDB records
row,Sequence,soluble on expression in E. coli
1,MGSSHHHHHHSSGLVPRGSEELQNKLEDVVIDRNLLILGKILGEGEFGSVMEGNLKQEDGTSLKVAVKTMKLDNSSQREIEEFLSEAACMKDFSHPNVIRLLGVCIEMSSQGIPKPMVILPFMKYGDLHTYLLYSRLETGPKHIPLQTLLKFMVDIALGMEYLSNRNFLHRDLAARNCMLRDDMTVCVADFGLSKKIYSGDYYRQGRIAKMPVKWIAIESLADRVYTSKSDVWAFGVTMWEIATRGMTPYPGVQNHEMYDYLLHGHRLKQPEDCLDELYEIMYSCWRTDPLDRPTFSVLRLQLEKLLESLPDV,soluble
2,MGSSHHHHHHSSGLVPRGSEHLKNISPIDGRYKKACGELSAFFSEHALIKHRIIVEVRWLLFLNEEELFFEKVTDHSVEVLNQIATNITDSDIARVKAIEEETNHDVKAVEYFVKEKLKNSKREDLLKIKEYVHYLCTSEDINNVAYATCLKACLNDVVIPCLEKIMLKLKDLAVEYSHVPLLSRTHGQPASSTTFGKEMANFYARIHHHVGVIRRVKVCAKFNGAVGNFNAHKVASKDTDWVNTIGLFLKKHFNLTYSIYCTQIQDHDYICELCDGLARANGTLIDLCVDIWLYISNNLLKLKVKEKEVGSSTMPHKVNPIDFENAEGNLHIANAFFKLFSSKLPTSRLQRDLSDSTVLRNIGSSLAYCLIAYKSVLKGLNKIDIDRRNLEEELNQNWSTLAEPIQIVMKRHNYVDAYEELKQFTRGKVIDQKIMQEFIKTKCAFLPQDVVDQLLELTPATYTGYADYLAKNVERLSGERD,soluble
3,MGSSHHHHHHSSGLVPRGSHMAEQVLPQALYLSNMRKAVKIRERTPEDIFKPTNGIIHHFKTMHRYTLEMFRTCQFCPQFREIIHKALIDRNIQATLESQKKLNWCREVRKLVALKTNGDGNCLMHATSQYMWGVQDTDLVLRKALFSTLKETDTRNFKFRWQLESLKSQEFVETGLCYDTRNWNDEWDNLIKMASTDTPMARSGLQYNSLEEIHIFVLCNILRRPIIVISDKMLRSLESGSNFAPLKVGGIYLPLHWPAQECYRYPIVLGYDSHHFVPLVTLKDSGPEIRAVPLVNRDRGRFEDLKVHFLTDPENEMKEKLLKEYLMVIEIPVQGWDHGTTHLINAAKLDEANLPKEINLVDDYFELVQHEYKKWQENSEQGRREGHAQ,soluble
4,MGSSHHHHHHSSGLVPRGSHMASERPVSTLSSQITGELRELNPQATGSSTSLVGQSLFQHSSLDTSQFGLNASIAEVLNASFKDGMLQNSQLIGEIALNYLPNSVMNSPLPIGINLRINNGAKFEKVILNQAFIERVAPEEFKVNPSFIDSRTLGAIKYSIKEPIAPIVIHPVWRFESHQASVVLTVKMSPSLPDEISQIVIEDLVVFVNIDGANATSALSKPQGSFSKEKKRITWRFKEPVVLTRNGEGQRLIARFITDGLAHESAKGVITKFTISETDNVALPHSGAGSGITLTCQELDENNPFGGEWLDVNTKRTLTTGNYHGLA,soluble
5,MGSSHHHHHHSSGLVPRGSHMASMGRIESAFDLGFIRGMTFGFVGQHGTWGTDEARASMRALAEQPFNWVTLAFAGLMEHPGDPAIAYGPPVTVSDDEIASMAELAHALGLKVCLKPTVNCRDGTWRGEIRFEKEHGPDLESWEAWFGSYSDMMAHYAHVAKRTGCEMFCVGCEMTTAEPHEAMWRETIARVRTEYDGLVTYNCNHGREEHVRFWDAVDLISSSAYYPIDRWRDRVPVLREVAEAHEKPLFFMEVGCPSRSGSGACPWDYRHPGAVCLDEQARFYEAMFAAMPDEPWFKGYMLWEWPWKLYPREAASEDGSYCIYGKPAEDVVARAFSAIANR,soluble
6,MGSSHHHHHHSSGLVPRGSHMASMTGGQQMGRGSMNIAVVTDSTAYIPKEMREQHQIHMIPLQVVFREETYREEIELDWKSFYEEVKKHNELPTTSQPPIGELVALYEELGKSYDAVISIHLSSGISGTFSSAAAADSMVDNIDVYPFDSEISCLAQGFYALKAAELIKNGASSPEDIIKELEEMKKTVRAYFMVDDLAHLQRGGRLSSAQAFIGSLLKVKPILHFDNKVIVPFEKIRTRKKAISRIYELLDEDASKGLPMRAAVIHANREEEAAKIIEELSAKYPHVEFYNSYFGAVIGTHLGEGALGICWCFK,soluble
7,MGSSHHHHHHSSGLVPRGSHMDFEEDYDAEFDDNQEGQLETPFPSVAGADDGDNDNDDSVAENMKKKQKREAVVDDGSENAFGIPEFTRKDKTLEEILEMMDSTPPIIPDAVIDYYLTKNGFNVADVRVKRLLALATQKFVSDIAKDAYEYSRIRSSVAVSNANNSQARARQLLQGQQQPGVQQISQQQHQQNEKTTASKVVLTVNDLSSAVAEYGLNIGRPDFYR,soluble
8,MGSSHHHHHHSSGLVPRGSHMEQMHSLESSLPPEQPPTKQAIESLNLELSQEFKLAANAVTRLYRVANEKNSLTKHQGYLTCLDDILCALDSNVTADELRAWCYKRRNDILSNSQDKSLNPVKERERKLNKFSENQHRENEAHKEPFEKDSAVKYNFSFNESNGDLSNINENIAPKFRLSMPPLSVEHPPRNASRIKSWKARTINHGRGDTRNLNDITGLGHERERDRENTHYEKKPKLDSDSEVDIRSFRQDMDL,soluble
9,MGSSHHHHHHSSGLVPRGSHMLEDPGEGQDIWDMLDKGNPFQFYLTRVSGVKPKYNSGALHIKDILSPLFGTLVSSAQFNYCFDVDWLVKQYPPEFRKKPILLVHGDKREAKAHLHAQAKPYENISLCQAKLDIAFGTHHTKMMLLLYEEGLRVVIHTSNLIHADWHQKTQGIWLSPLYPRIADGTHKSGESPTHFKANLISYLTAYNAPSLKEWIDVIHKHDLSETNVYLIGSTPGRFQGSQKDNWGHFRLKKLLKDHASSMPNAESWPVVGQFSSVGSLGADESKWLCSEFKESMLTLGKESKTPGKSSVPLYLIYPSVENVRTSLEGYPAGGSLPYSIQTAEKQNWLHSYFHKWSAETSGRSNAMPHIKTYMRPSPDFSKIAWFLVTSANLSKAAWGALEKNGTQLMIRSYELGVLFLPSALGLDSFKVKQKFFAGSQEPMATFPVPYDLPPELYGSKDRPWIWNIPYVKAPDTHGNMWVPS,soluble
10,MGSSHHHHHHSSGLVPRGSHMYLGRILAVGRNSNGSFVAYRVSSRSFPNRTTSIQEERVAVVPVEGHERDVFRNPYIAYNCIRIVGDTAVVSNGSHTDTIADKVALGMNLRDAIGLSLLAMDYEKDELNTPRIAAAINGSEAFIGIVTADGLMVSRVPEETPVYISTYEQTEPAATEFKAGSPEEAAEFILKGGEFAAFTHPVTAAAAFNDGEGWNLATREM,soluble
11,MGSSHHHHHHSSGLVPRGSNLKIKLQKRRDEVNTCLCIGLDPDEADIKSFMQSEKQNGYQSVKKNLSNSGSSSSSSNSSSGKGELFAPQMGGQMLLAETPPKEAQEKDEFFYFFNHFCFYIINETKEYALAYKMNFAFYLPYGSLGVDVLKNVFDYLHHLNVPTILDIKMNDIGNTVKHYRKFIFDYLRSDSCTANIYMGTQMLRDICLDEECKRYYSTFVLVKTTNADSHIFQNRLSLDGKEAYVVIAEEVQKMAKQLHLEENGEFVGFVVGANCYDEIKKIRELFPDCYILAPGVGAQKGDLRKMLCNGYSKNYEKVLINVGRAITKSGSPQQAAREYHQQIKEVLAELQE,soluble
12,MGSSHHHHHHSSGRENLYFQGHMIMIFTSSCCDNLSIDEIIERAEKGDCEAQYIVGFYYNRDSAIDSPDDEKAFYWLKLAAEQGHCEAQYSLGQKYTEDKSRHKDNEQAIFWLKKAALQGHTFASNALGWTLDRGEAPNYKEAVVWYQIAAESGMSYAQNNLGWMYRNGNGVAKDYALAFFWYKQAALQGHSDAQNNLADLYEDGKGVAQNKTLAAFWYLKSAQQGNRHAQFQIAWDYNAGEGVDQDYKQAMYWYLKAAAQGSVGAYVNIGYMYKHGQGVEKDYQAAFEWFTKAAECNDATAWYNLAIMYHYGEGRPVDLRQALDLYRKVQSSGTRDVSQEIRETEDLL,soluble
13,MGSSHHHHHHSSGRENLYFQGHMTRTNLITGFLGSGKTTSILHLLAHKDPNEKWAVLVNEFGEVGIDGALLADSGALLKEIPGGCMCCVNGLPMQVGLNTLLRQGKPDRLLIEPTGLGHPKQILDLLTAPVYEPWIDLRATLCILDPRLLLDEKSASNENFRDQLAAADIIVANKSDRTTPESEQALQRWWQQNGGDRQLIHSEHGKVDGHLLDLPRRNLAELPASAAHSHQHVVKKGLAALSLPEHQRWRRSLNSGQGYQACGWIFDADTVFDTIGILEWARLAPVERVKGVLRIPEGLVRINRQGDDLHIETQNVAPPDSRIELISSSEADWNALQSALLKLRLATTA,soluble
14,MGSSHHHHHHSSGRENLYFQGMNDSIHGGLRVCQSTPLVQLQDRGRFGCRHLGVTQGGALDWLSMGWANWLLGNPLDAAVIEIALGGFVADCRADGWLALAGGDLGATLDGQPLPAWGAFAVRGGQRLAFAHPRQGARAYLAAPGGFAGERQLGSLATVAREGLGGPRADGKALAAGDSLGWLADGARPRALPLPSERIMDCTGEARLELILGAQIGDFPAMSLFDAFNGDWQVDTRADRMGVRLLGPRLECRQQSMISEGIALGAVQVPPDGQPIVLLNDRQTIGGYPRLGALAPLALARLAQCLPGQRVRLLPTVQEAAHREHRRLLAAWDA,soluble
15,MGTFATTYEKIQDFNWLTRFLHAGRYRKLLEVLETVQKDVGNRKVRILDIGCGPGTAVGHILERFDVEYVGIDYDPIFIDAARNRYGKNENCRFIVGDATDERLYETIQADIVIALETLEHIHLNRTVRVIEHVCTIIRPRIFLVTVPVEVGPAVWIKNWGSALMGYNRQSGNLKETFWAGLYRMDRVPAHHTSHQGFDWRCLAQLIRVNAPLREIRSLPFSFVPRLLSPNVALIAEPVKSTIDLANDDPEAWKINHGQTAFQRPHIVDETDAARHAKSLATWSMRLKGLLGMALATMPFAWHRWSYISISPGEAQSSHFLLTIDKHLLPPHQSIEGDTILLAAQAIVQRVSDASYLLT,not soluble
16,MGTVMDVLKGDNRFSMLVAAIQSAGLTETLNREGVYTVFAPTNEAFRALPPRERSRLLGDAKELANILKYHIGDEILVSGGIGALVRLKSLQGDKLEVSLKNNVVSVNKEPVAEPDIMATNGVVHVITNVLQP,soluble
17,MGVETLNKVFKIAKKFYTDIRYYSFQLACIHLGETFSRYTKFNLADKYYLKKDKIVLNYLRTRYTNSPKQDVYGGVPKIYQPIWVFWYQGEEQMPKLVSACLKSVRNNANGHEVILISKENMNNYIEIPDVIRDRVESKKISMAQYSDIIRMCLLAEYGGLWIDATVLVTQLIPQYIFELPLFTIKNSPNQEDPLYFISVSHLRWTTYVMGGEPNNALFTFVRDLLIEYNSVENALIDYLLIDYAIELAIEKNSSISDDMIKIPINNQLKEEFVHRLFSVYPDCKTKELLQSGTIFFKLSYKKVAPKVIEKNNYQLLVDGDLCQAYNMGNLEHHHHHH,not soluble
18,MGVPIGDLVPRKEIDLENLYGKKIAIDALNAIYQFLSTIRQEDGTPLMDSKGRITSHLSGLFYRTINLMEAGIKPAYVFDGKPPEFKRKELEKRREAREEAELKWKEALAKGNLEEARKYAQRATKVNEMLIEDAKKLLQLMGIPIIQAPSEGEAQAAYMASKGDVYASASQDYDSLLFGAPRLIRNLTITGKRKMPGKDVYVEIKPELVVLDEVLKELKITREKLIELAILVGTDYNPGGVKGIGPKKALEIVRYSRDPLAKFQRQSDVDLYAIKEFFLNPPVTNEYSLSWKEPDEEGILKFLCDEHNFSEERVKNGIERLKKAIKAGRQSTLESWFVKKKP,soluble
19,MGVVLARGAFRERSMLTLPDFPLPDARGRFGPYGGRYVPETLIPALEELEAAYREAKKDPAFLEELDHYLRQFAGRPTPLYHAKRLSEYWGGAQVFLKREDLLHTGAHKINNTLGQALLARRMGKRRVIAETGAGQHGVSVATVAALFGLECVVYMGEEDVRRQALNVFRMKLLGAEVRPVAAGSRTLKDATNEAIRDWITNVRTTFYILGSVVGPHPYPMMVRDFQSVIGEEVKRQSLELFGRLPDALIAAVGGGSNAIGLFAPFAYLPEGRPKLIGVEAAGEGLSTGRHAASIGAGKRGVLHGSYMYLLYDHDGQITPAHSVSAGLDYPGVGPEHSYYADAGVAEYASVTDEEALEGFKLLARLEGIIPALESAHAIAYAAKVVPEMDKDQVVVINLSGRGDKDVTEVMRLLGGEL,soluble
